Measurements taken from patent US20230357704A1 (Alliance for Sustainable Energy, LLC, priority 2022, published 2023).

Legend:
P. renovo [1] = assay: Growth of FDH-expressing P. renovo in media supplemented with formate; assay type: cell-based, Picochlorum renovo; details: for growth in media supplemented with formate: 25 mM formate, 2% CO2, pH 6.0; for growth on sodium formate: up to 75 mM sodium formate, 2% CO2, pH=6 Bis-Tris, 5 mM NH4Cl
Method: Cultures were mixed via shaking (170 rpm) at 33° C., 2% CO2, and 125 uE cool white LED lighting.
FDH variants utilized were mutated from the Pseudomonas sp. 101 FDH, specifically NAD+ utilizing variant (A198G) and NADP+ utilizing variant (A198G/D221Q/C255A/H379K/S380V). FDH transformation vectors were prepared by Twist Bioscience, cloning a ribosomal binding site ([…]) and codon optimized FDH downstream of the ptxD selectable marker in our previously described chloroplast transformation vector. P. renovo transformation was carried out as described previously, with the exception that Critter Technology binding and precipitation buffers were used according to the manufacturers recommendations to bind DNA (plasmid prepared by Twist Bioscience) onto the gold microcarriers for biolistic transformation.

P. renovo [2] = assay: Formate utilization, HPLC analysis of culture supernatant; assay type: cell-based, Picochlorum renovo; details: for formate consumed from the culture media: 25 mM formate, 2% CO2, after 85 hours of cultivation; for formate consumption: 10 mM sodium formate, evaporative losses taken into account
Method: Six μL of filtered cell-free supernatant was used for injection into the Bio-Rad HPX-87H (300×7.8 mm) ion exchange column. Elution of the organic acid was carried out with 0.01 N sulfuric acid at a flow rate of 0.6 mL per min. The column temperature was maintained at 55° C.

B1: NADP+-utilizing FDH variant: Pseudomonas sp. 101 formate dehydrogenase mutant A198G/D221Q/C255A/H379K/S380V, SEQ ID NO: 32, expressed in P. renovo chloroplast (protein)
chain: MSDPTLAQPHLVEVHTTLETVVTTHNHNHRPSINASGEKKKIVGVFYKGNEYAKLNPNFVGCVEGALGIREWLESQGHQYIVTDDKEGPDSELEKHIPDAHVIISTPFHPAYVTAERIKKAQKLELLLTAGIGSDHVDLKAAAAAGLTVAEVTGSNVVSVAEDELMRILILMRNFLPGYHQAVKGEWNVAGIAHRAYDLEGKTVGTVGAGRIGKLLLQRLKPFNCNLLYFDRLRIDPELEKEIGAKFEEDLDAMLPKCDVIVINTPLTEQTRGLFDKNRIAKCKKGVLIVNNARGAIADTQAIADACSSGHVAGYSGDVWDPQPAPKDHPWRYMPNHAMTPHISGTTIDAQLRYAAGVKDMLDRHFKGEDFPEQNYIVKEGQLASQYR
modifications: Pseudomonas sp. 101
growth in media supplemented with formate (P. renovo [1]): no growth
growth in media supplemented with formate (P. renovo [1]; listed as NADP+ utilizing FDH variant): did not grow
formate consumed from the culture media (P. renovo [2]): no formate utilization

B2: SV26: Candida boidinii FDH (C23S), SEQ ID NO: 14 (protein, listed as Candida boidinii)
chain: MKIVLVLYDAGKHAADEEKLYGSTENKLGIANWLKDQGHELITTSDKEGETSELDKHIPDADIIITTPFHPAYITKERLDKAKNLKLVVVAGVGSDHIDLDYINQTGKKISVLEVTGSNVVSVAEHVVMTMLVLVRNFVPAHEQIINHDWEVAAIAKDAYDIEGKTIATIGAGRIGYRVLERLLPFNPKELLYYDYQALPKEAEEKVGARRVENIEELVAQADIVTVNAPLHAGTKGLINKELLSKFKKGAWLVNTARGAICVAEDVAAALESGQLRGYGGDVWFPQPAPKDHPWRDMRNKYGAGNAMTPHYSGTTLDAQTRYAEGTKNILESFFTGKFDYRPQDIILLNGEYVTKAYGKHDKK
growth on sodium formate (P. renovo [1]): able to grow

B3: SV27: Candida boidinii FDH (C23S/C262A), SEQ ID NO: 16 (protein, listed as Candida boidinii)
chain: MKIVLVLYDAGKHAADEEKLYGSTENKLGIANWLKDQGHELITTSDKEGETSELDKHIPDADIIITTPFHPAYITKERLDKAKNLKLVVVAGVGSDHIDLDYINQTGKKISVLEVTGSNVVSVAEHVVMTMLVLVRNFVPAHEQIINHDWEVAAIAKDAYDIEGKTIATIGAGRIGYRVLERLLPFNPKELLYYDYQALPKEAEEKVGARRVENIEELVAQADIVTVNAPLHAGTKGLINKELLSKFKKGAWLVNTARGAIAVAEDVAAALESGQLRGYGGDVWFPQPAPKDHPWRDMRNKYGAGNAMTPHYSGTTLDAQTRYAEGTKNILESFFTGKFDYRPQDIILLNGEYVTKAYGKHDKK
growth on sodium formate (P. renovo [1]): able to grow

B4: NAD+-utilizing FDH variant: Pseudomonas sp. 101 formate dehydrogenase mutant A198G, SEQ ID NO: 30, expressed in P. renovo chloroplast (protein)
chain: MAKVLCVLYDDPVDGYPKTYARDDLPKIDHYPGGQTLPTPKAIDFTPGQLLGSVSGELGLRKYLESNGHTLVVTSDKDGPDSVFERELVDADVVISQPFWPAYLTPERIAKAKNLKLALTAGIGSDHVDLQSAIDRNVTVAEVTYCNSISVAEHVVMMILSLVRNYLPSHEWARKGGWNIADCVSHAYDLEAMHVGTVGAGRIGLAVLRRLAPFDVHLHYTQRHRLPESVEKELNLTWHATREDMYPVCDVVTLNAPLHPETEHMINDETLKLFKRGAYIVNTARGKLCDRDAVARALESGRLAGYAGDVWFPQPAPKDHPWRTMPYNGMTPHISGTTLTAQARYAAGTREILECFFEGRPIRDEYLIVQGGALAGTGAKVYSKGNATGGSEEAAKFKKAV
modifications: Pseudomonas sp. 101
growth when supplemented with formate (P. renovo [1]; 5 mM formate, ambient CO2 (0.04%), versus no formate supplementation): enhanced growth
optical density relative to wild-type (P. renovo [1]; 5 mM formate, ambient CO2 (0.04%), versus unsupplemented wild-type): > 3.8 ×
culture density (P. renovo [1]; 10 mM formate compared to 25 mM formate, 2% CO2): higher culture density
growth in media supplemented with formate (P. renovo [1]): Growth in media supplemented with 25 mM formate was observed
formate concentration in culture (P. renovo [2]; 5 mM formate added (initial 6.2 mM), ambient CO2 (0.04%), after 312 hours, HPLC): 1.7 mM
utilization of the added formate (P. renovo [2]; 5 mM formate, ambient CO2 (0.04%), 312 hours): 74+/−2%
formate consumption (P. renovo [2]; 2% CO2, at 85 hours): 77±2%
formate consumption (P. renovo [2]; 2% CO2, at 132 hours): 88±1%
formate consumed from the culture media (P. renovo [2]): 48±1%
